Data from patent publication US20130143798A1 (Novo Nordisk, published 2013).
Numbered stars: 1 amine (or outer) side, 2 acyl side, 3 side chain; on linkers, the order of the positions; unused ones are H or OH. Square brackets hold non-standard residues; d marks the D form. Side chains are listed from the residue outwards. Ends that are not written are not given here. * marks the point of attachment. C18 diacid = O=C(O)CCCCCCCCCCCCCCCCC(=O)*; γGlu = O=C(O)[C@H](CCC(=O)[*:2])N[*:1]; AEEA = NCCOCCOCC(=O)O; Aib = CC(C)(N)C(=O)O

B1: N^ε29-([2-[2-[2-[[(4S)-5-hydroxy-4-[(18-hydroxy-18-oxooctadecanoyl)amino]5-oxopentanoyl]amino]ethoxy]ethoxy]acetyl]amino]ethoxy]ethoxy]acetyl]])[Leu^27,Lys^29]G … (peptide)
peptide: HSQGTFTSDYSKYLDSRRAQDFVQWLLNK([AEEA-AEEA-γGlu-C18 diacid])
modifications: not fully specified; printed as N^ε29-([2-[2-[2-[[(4S)-5-hydroxy-4-[(18-hydroxy-18-oxooctadecanoyl)amino]5-oxopentanoyl]amino]ethoxy]ethoxy]acetyl]amino]ethoxy]ethoxy]acetyl]])[Leu^27,Lys^29]Glucagon
B2: N^ε24-([2-[2-[2-[[2-[2-[2-[[(4S)-5-hydroxy-4-[(18-hydroxy-18-oxooctadecanoyl)amino]-5-oxopentanoyl]amino]ethoxy]ethoxy]acetyl]amino]ethoxy]ethoxy]acetyl])[Glu^2 … (peptide)
peptide: HSQGTFTSDYSKYLDSRRAQEFVK([AEEA-AEEA-γGlu-C18 diacid])RLLNT-NH2
modifications: N-terminus assumed
SMILES: CC(C)C[C@H](NC(=O)[C@H](Cc1ccc(O)cc1)NC(=O)[C@H](CCCCN)NC(=O)[C@H](CO)NC(=O)[C@H](Cc1ccc(O)cc1)NC(=O)[C@H](CC(=O)O)NC(=O)[C@H](CO)NC(=O)[C@@H](NC(=O)[C@H](Cc1ccccc1)NC(=O)[C@@H](NC(=O)CNC(=O)[C@H](CCC(N)=O)NC(=O)[C@H](CO)NC(=O)[C@@H](N)Cc1c[nH]cn1)[C@@H](C)O)[C@@H](C)O)C(=O)N[C@@H](CC(=O)O)C(=O)N[C@@H](CO)C(=O)N[C@@H](CCCNC(=N)N)C(=O)N[C@@H](CCCNC(=N)N)C(=O)N[C@@H](C)C(=O)N[C@@H](CCC(N)=O)C(=O)N[C@@H](CCC(=O)O)C(=O)N[C@@H](Cc1ccccc1)C(=O)N[C@H](C(=O)N[C@@H](CCCCNC(=O)COCCOCCNC(=O)COCCOCCNC(=O)CC[C@H](NC(=O)CCCCCCCCCCCCCCCCC(=O)O)C(=O)O)C(=O)N[C@@H](CCCNC(=N)N)C(=O)N[C@@H](CC(C)C)C(=O)N[C@@H](CC(C)C)C(=O)N[C@@H](CC(N)=O)C(=O)N[C@H](C(N)=O)[C@@H](C)O)C(C)C
B3: N^ε24-([2-[2-[2-[[2-[2-[2-[[(4S)-5-hydroxy-4-[(18-hydroxy-18-oxooctadecanoyl)amino]-5-oxopentanoyl]amino]ethoxy]ethoxy]acetyl]amino]ethoxy]ethoxy]acetyl]) … (peptide)
peptide: H[dS]QGTFTSDYSKYLAEQRARDFVK([AEEA-AEEA-γGlu-C18 diacid])WLLNT-NH2
modifications: N-terminus assumed
SMILES: CC(C)C[C@H](NC(=O)[C@H](Cc1ccc(O)cc1)NC(=O)[C@H](CCCCN)NC(=O)[C@H](CO)NC(=O)[C@H](Cc1ccc(O)cc1)NC(=O)[C@H](CC(=O)O)NC(=O)[C@H](CO)NC(=O)[C@@H](NC(=O)[C@H](Cc1ccccc1)NC(=O)[C@@H](NC(=O)CNC(=O)[C@H](CCC(N)=O)NC(=O)[C@@H](CO)NC(=O)[C@@H](N)Cc1c[nH]cn1)[C@@H](C)O)[C@@H](C)O)C(=O)N[C@@H](C)C(=O)N[C@@H](CCC(=O)O)C(=O)N[C@@H](CCC(N)=O)C(=O)N[C@@H](CCCNC(=N)N)C(=O)N[C@@H](C)C(=O)N[C@@H](CCCNC(=N)N)C(=O)N[C@@H](CC(=O)O)C(=O)N[C@@H](Cc1ccccc1)C(=O)N[C@H](C(=O)N[C@@H](CCCCNC(=O)COCCOCCNC(=O)COCCOCCNC(=O)CC[C@H](NC(=O)CCCCCCCCCCCCCCCCC(=O)O)C(=O)O)C(=O)N[C@@H](Cc1c[nH]c2ccccc12)C(=O)N[C@@H](CC(C)C)C(=O)N[C@@H](CC(C)C)C(=O)N[C@@H](CC(N)=O)C(=O)N[C@H](C(N)=O)[C@@H](C)O)C(C)C
B4: N^α([Leu^27]Glucagonyl) … (peptide)
peptide: HSQGTFTSDYSKYLDSRRAQDFVQWLLNTK
modifications: C-terminal Lys (position 30): N-epsilon acylated with the substituent printed in the name
B5: N^ε24-([2-[2-[2-[[2-[2-[2-[[(4S)-5-hydroxy-4-[(18-hydroxy-18-oxooctadecanoyl)amino]-5-oxopentanoyl]amino]ethoxy]ethoxy]acetyl]amino]ethoxy]ethoxy]acetyl]) … (peptide)
peptide: H[Aib]QGTFTSDYSKYLDERRAQDFVK([AEEA-AEEA-γGlu-C18 diacid])WLLNT-NH2
modifications: N-terminus assumed
SMILES: CC(C)C[C@H](NC(=O)[C@H](Cc1ccc(O)cc1)NC(=O)[C@H](CCCCN)NC(=O)[C@H](CO)NC(=O)[C@H](Cc1ccc(O)cc1)NC(=O)[C@H](CC(=O)O)NC(=O)[C@H](CO)NC(=O)[C@@H](NC(=O)[C@H](Cc1ccccc1)NC(=O)[C@@H](NC(=O)CNC(=O)[C@H](CCC(N)=O)NC(=O)C(C)(C)NC(=O)[C@@H](N)Cc1c[nH]cn1)[C@@H](C)O)[C@@H](C)O)C(=O)N[C@@H](CC(=O)O)C(=O)N[C@@H](CCC(=O)O)C(=O)N[C@@H](CCCNC(=N)N)C(=O)N[C@@H](CCCNC(=N)N)C(=O)N[C@@H](C)C(=O)N[C@@H](CCC(N)=O)C(=O)N[C@@H](CC(=O)O)C(=O)N[C@@H](Cc1ccccc1)C(=O)N[C@H](C(=O)N[C@@H](CCCCNC(=O)COCCOCCNC(=O)COCCOCCNC(=O)CC[C@H](NC(=O)CCCCCCCCCCCCCCCCC(=O)O)C(=O)O)C(=O)N[C@@H](Cc1c[nH]c2ccccc12)C(=O)N[C@@H](CC(C)C)C(=O)N[C@@H](CC(C)C)C(=O)N[C@@H](CC(N)=O)C(=O)N[C@H](C(N)=O)[C@@H](C)O)C(C)C
B6: N^α([Glu^16,Gln^17,Arg^20]Glucagonyl) … (peptide)
peptide: HSQGTFTSDYSKYLDEQRARDFVQWLMNTK([AEEA-AEEA-γGlu-C18 diacid])-NH2
modifications: N-terminus assumed
SMILES: CSCC[C@H](NC(=O)[C@H](CC(C)C)NC(=O)[C@H](Cc1c[nH]c2ccccc12)NC(=O)[C@H](CCC(N)=O)NC(=O)[C@@H](NC(=O)[C@H](Cc1ccccc1)NC(=O)[C@H](CC(=O)O)NC(=O)[C@H](CCCNC(=N)N)NC(=O)[C@H](C)NC(=O)[C@H](CCCNC(=N)N)NC(=O)[C@H](CCC(N)=O)NC(=O)[C@H](CCC(=O)O)NC(=O)[C@H](CC(=O)O)NC(=O)[C@H](CC(C)C)NC(=O)[C@H](Cc1ccc(O)cc1)NC(=O)[C@H](CCCCN)NC(=O)[C@H](CO)NC(=O)[C@H](Cc1ccc(O)cc1)NC(=O)[C@H](CC(=O)O)NC(=O)[C@H](CO)NC(=O)[C@@H](NC(=O)[C@H](Cc1ccccc1)NC(=O)[C@@H](NC(=O)CNC(=O)[C@H](CCC(N)=O)NC(=O)[C@H](CO)NC(=O)[C@@H](N)Cc1c[nH]cn1)[C@@H](C)O)[C@@H](C)O)C(C)C)C(=O)N[C@@H](CC(N)=O)C(=O)N[C@H](C(=O)N[C@@H](CCCCNC(=O)COCCOCCNC(=O)COCCOCCNC(=O)CC[C@H](NC(=O)CCCCCCCCCCCCCCCCC(=O)O)C(=O)O)C(N)=O)[C@@H](C)O
B7: N^α([Glu^16,Gln^17,Ala^18,Arg^20]Glucagonyl) … (peptide)
peptide: HSQGTFTSDYSKYLDEQAARDFVQWLMNTK([AEEA-AEEA-γGlu-C18 diacid])-NH2
modifications: N-terminus assumed
SMILES: CSCC[C@H](NC(=O)[C@H](CC(C)C)NC(=O)[C@H](Cc1c[nH]c2ccccc12)NC(=O)[C@H](CCC(N)=O)NC(=O)[C@@H](NC(=O)[C@H](Cc1ccccc1)NC(=O)[C@H](CC(=O)O)NC(=O)[C@H](CCCNC(=N)N)NC(=O)[C@H](C)NC(=O)[C@H](C)NC(=O)[C@H](CCC(N)=O)NC(=O)[C@H](CCC(=O)O)NC(=O)[C@H](CC(=O)O)NC(=O)[C@H](CC(C)C)NC(=O)[C@H](Cc1ccc(O)cc1)NC(=O)[C@H](CCCCN)NC(=O)[C@H](CO)NC(=O)[C@H](Cc1ccc(O)cc1)NC(=O)[C@H](CC(=O)O)NC(=O)[C@H](CO)NC(=O)[C@@H](NC(=O)[C@H](Cc1ccccc1)NC(=O)[C@@H](NC(=O)CNC(=O)[C@H](CCC(N)=O)NC(=O)[C@H](CO)NC(=O)[C@@H](N)Cc1c[nH]cn1)[C@@H](C)O)[C@@H](C)O)C(C)C)C(=O)N[C@@H](CC(N)=O)C(=O)N[C@H](C(=O)N[C@@H](CCCCNC(=O)COCCOCCNC(=O)COCCOCCNC(=O)CC[C@H](NC(=O)CCCCCCCCCCCCCCCCC(=O)O)C(=O)O)C(N)=O)[C@@H](C)O

What follows are binders tested against glucagon receptor (UniProt P47871 26-477, limits assumed) (assay: cell-based or functional assay).
glucagon receptor, sequence (P47871 26-477 limits assumed): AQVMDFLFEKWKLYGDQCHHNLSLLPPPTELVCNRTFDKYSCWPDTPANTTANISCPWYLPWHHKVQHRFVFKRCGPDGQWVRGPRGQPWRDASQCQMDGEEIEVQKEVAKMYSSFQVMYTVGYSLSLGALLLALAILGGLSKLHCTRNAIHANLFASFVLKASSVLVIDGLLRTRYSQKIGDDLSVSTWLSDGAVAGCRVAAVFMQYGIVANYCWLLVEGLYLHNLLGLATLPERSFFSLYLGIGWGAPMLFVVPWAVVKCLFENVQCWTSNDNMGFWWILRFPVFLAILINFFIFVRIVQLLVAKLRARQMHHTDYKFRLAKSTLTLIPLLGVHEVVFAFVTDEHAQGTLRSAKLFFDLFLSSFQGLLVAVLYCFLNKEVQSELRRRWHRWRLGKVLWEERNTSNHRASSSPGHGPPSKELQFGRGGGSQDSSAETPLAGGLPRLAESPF

Question: HSQGTFTSDYSKYLDSRRAQDFVK([AEEA-AEEA-γGlu-C18 diacid])WLLST was tested. Which “Assay (I) Glucagon [EC50]” value did it give?
Answer: Its value is 0.02 nM.

Question: How did the “Assay (I) Glucagon [EC50]” value turn out when HSQGTFTSDYSKYLDK([AEEA-AEEA-γGlu-C18 diacid])RRAQDFVQWLLNT was run?
Answer: The value was 0.003 nM.

Question: With B1 as the binder, how does the “Assay (I) Glucagon [EC50]” value read?
Answer: The value was 0.046 nM.

Question: For B2, which “Assay (I) Glucagon [EC50]” value is on record?
Answer: The value was 0.043 nM.

Question: For HSQGTFTSDYSKYLDSRRAQDFVK([AEEA-AEEA-γGlu-C18 diacid])WLLTT, which “Assay (I) Glucagon [EC50]” value is on record?
Answer: The value was 0.024 nM.

Question: How did the “Assay (I) Glucagon [EC50]” value turn out when HSQGTFTSDYSKYLDSK([AEEA-AEEA-γGlu-C18 diacid])RAQDFVQWLLNT was run?
Answer: The value was 0.094 nM.

Question: How did the “Assay (I) Glucagon [EC50]” value turn out when B3 was run?
Answer: Its value is 0.137 nM.

Question: With B4 as the binder, how does the “Assay (I) Glucagon [EC50]” value read?
Answer: Its value is 0.019 nM.

Question: Which “Assay (I) Glucagon [EC50]” value does the source give for HSQGTFTSDYSKYLDTRRAQDFVK([AEEA-AEEA-γGlu-C18 diacid])WLLST here?
Answer: The value was 0.016 nM.

Question: For HSQGTFTSDYSKYLDSRK([AEEA-AEEA-γGlu-C18 diacid])AQDFVQWLLNT, which “Assay (I) Glucagon [EC50]” value is on record?
Answer: Its value is 0.206 nM.

Question: Which “Assay (I) Glucagon [EC50]” value does the source give for B5 here?
Answer: The value was 0.135 nM.

Question: For B6, which “Assay (I) Glucagon [EC50]” value is on record?
Answer: The value was 0.192 nM.

Question: Which “Assay (I) Glucagon [EC50]” value does the source give for HSQGTFTSDYSRYLDSRRAQDFVK([AEEA-AEEA-γGlu-C18 diacid])WLLNT here?
Answer: Its value is 0.109 nM.

Question: Which “Assay (I) Glucagon [EC50]” value does the source give for H[dS]QGTFTSDYSKYLDERRAQDFVK([AEEA-AEEA-γGlu-C18 diacid])WLLNT here?
Answer: The value was 0.149 nM.

Question: Which “Assay (I) Glucagon [EC50]” value does the source give for H[dS]QGTFTSDYSKYLDSRRAKDFVQWLMNTK-NH2 (not fully specified) here?
Answer: Its value is 0.54 nM.

Question: For B7, which “Assay (I) Glucagon [EC50]” value is on record?
Answer: Its value is 0.406 nM.

Question: With HSQGTFTSDYSKYLDSRRAQEFVK([AEEA-AEEA-γGlu-C18 diacid])WLLNT as the binder, how does the “Assay (I) Glucagon [EC50]” value read?
Answer: The value was 0.021 nM.
